Assay results reported in patent US20210179728A1 (OSE IMMUNOTHERAPEUTICS, published 2021).
Residue numbers refer to the chain shown, from its start. Blank lines part the entries; values can stand above or below the binder they belong to.

Tests used:
[1] = molecular target: T1, recombinant hSIRPa (Sino Biologicals, reference 11612-H08H) (human, UniProt P78324 31-370); test: ELISA on immobilized SIRPa-His, peroxidase anti-human IgG, DO 450nm [panel CD80]
T1 construct: also called SIRPa-His; human SIRPa-His; not shown: His tag (histidine tail)
T1 sequence (P78324 31-370 limits assumed): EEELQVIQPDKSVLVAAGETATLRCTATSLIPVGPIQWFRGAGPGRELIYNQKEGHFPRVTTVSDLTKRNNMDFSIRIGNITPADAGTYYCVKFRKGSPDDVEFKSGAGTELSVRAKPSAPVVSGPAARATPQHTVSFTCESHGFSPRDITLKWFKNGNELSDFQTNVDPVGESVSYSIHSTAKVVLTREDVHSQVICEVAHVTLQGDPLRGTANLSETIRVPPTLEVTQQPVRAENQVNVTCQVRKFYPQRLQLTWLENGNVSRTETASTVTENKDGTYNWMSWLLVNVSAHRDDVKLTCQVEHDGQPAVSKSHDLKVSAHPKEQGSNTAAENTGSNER
Method: (§1) Method: For ELISA assay, recombinant hSIRPa (Sino Biologicals, Beijing, China; reference 11612-H08H) was immobilized on plastic at 0.5 μg/ml in carbonate buffer (pH9.2) and different modified anti-SIRPa antibodies were added to measure binding to SIRPa.

CTLA4-Fc = molecular target: T2, CTLA4-Fc (human, UniProt P16410 36-161, limits assumed); test: ELISA: modified antibody (concentration on the axis) captured on SIRPa-His, then CTLA4-Fc, detected with mouse anti-human CTLA4 [panel CD80]
T2 construct: not shown: Fc; not specified
T2 sequence (P16410 36-161 limits assumed): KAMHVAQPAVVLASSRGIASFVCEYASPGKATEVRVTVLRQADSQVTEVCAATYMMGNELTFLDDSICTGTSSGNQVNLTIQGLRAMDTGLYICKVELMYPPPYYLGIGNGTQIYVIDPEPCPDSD

OX40Fc = molecular target: T3, OX40Fc (human, UniProt P43489 29-216); test: ELISA: modified antibody (concentration on the axis) captured on SIRPa-His, then OX40Fc, detected with mouse anti-human OX40 [panel OX40L]
T3 construct: not shown: Fc; not specified
T3 sequence (looked up): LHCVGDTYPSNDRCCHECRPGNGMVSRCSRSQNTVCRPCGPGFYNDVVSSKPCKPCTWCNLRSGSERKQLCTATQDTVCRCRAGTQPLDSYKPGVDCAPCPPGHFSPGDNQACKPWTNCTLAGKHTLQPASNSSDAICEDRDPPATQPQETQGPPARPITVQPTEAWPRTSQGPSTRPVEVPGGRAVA
From the text: FIG. 24. Ligand binding assay with the different modified anti-SIRPa antibodies by ELISA.

[2] = molecular target: T1, recombinant hSIRPa (Sino Biologicals, …); test: ELISA on immobilized SIRPa-His, peroxidase anti-human IgG, DO 450nm [panel OX40L]
Method: as §1

[3] = molecular target: T1, recombinant hSIRPa (Sino Biologicals, …); test: ELISA on immobilized hSIRPa-His, anti-human IgG detection, second experiment
Method: (§2) Method: The binding activity of the anti-SIRPa antibodies was assessed by ELISA.

[4] = molecular target: T4, recombinant hSIRPg-His (Sino Biologicals, reference 11828-H08H) (human, UniProt Q9P1W8 29-360); test: BLI (Blitz); SIRPg-His on Ni-NTA biosensor, antibody at 10 ug/ml or 20 ug/ml (Example 9) [B, table A]
T4 construct: also called human SIRPg-His; not shown: His tag
T4 sequence (Q9P1W8 29-360 limits assumed): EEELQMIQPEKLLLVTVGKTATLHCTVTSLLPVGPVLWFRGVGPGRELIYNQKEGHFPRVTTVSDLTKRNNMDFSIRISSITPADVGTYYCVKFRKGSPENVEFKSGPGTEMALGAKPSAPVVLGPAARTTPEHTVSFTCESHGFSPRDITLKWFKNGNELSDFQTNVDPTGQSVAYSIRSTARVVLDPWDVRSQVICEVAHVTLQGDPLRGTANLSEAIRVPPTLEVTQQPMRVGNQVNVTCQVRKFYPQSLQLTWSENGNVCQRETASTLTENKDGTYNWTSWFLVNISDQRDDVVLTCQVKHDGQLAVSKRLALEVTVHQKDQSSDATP
Method: (§3) FIG. 8. (A) Affinity analysis by Blitz of anti-SIRP antibodies on human SIRPg recombinant protein. SIRPg-His recombinant protein was immobilized onto a NINTA biosensor and the indicated antibodies were added at 10 μg/ml. […] (B) Binding analysis by ELISA assay of anti-SIRP antibodies on SIRPg (human SIRPg-His coating and anti-human kappa detection).
(§4) Method: This method was performed with a Blitz (Forte Bio; USA; reference C22-2 No 61010-1). Recombinant hSIRPg-His (Sino Biologicals, Beijing, China; reference 11828-H08H) was immobilized at 10 μg/ml by histidine tail into a Ni-NTA biosensor (Forte Bio; USA; reference 18-0029) for 30 seconds. Then, an anti-SIRPa antibody was associated at 20 μg/mL for 120 seconds. The dissociation of anti-SIRPa antibody was made in kinetics buffer for 120 seconds. Analysis of data was made with the Blitz pro 1.2 software, which calculated association constant (ka) and dissociation constant (kd) and determined the affinity constant KD […].

[5] = molecular target: T1, recombinant hSIRPa (Sino Biologicals, …); test: ELISA on immobilized hSIRPa-His, anti-human IgG detection, first experiment; first experiment
Method: as §2

[6] = molecular target: T1, recombinant hSIRPa (Sino Biologicals, …); test: competition ELISA on immobilized SIRPa-His; competitor biotinylated CD47-Fc at 6 ug/ml, streptavidin-peroxidase [second experiment table]
Method: Method: For competitive ELISA assay, recombinant hSIRPa (Sino Biologicals, Beijing, China; reference 11612-H08H) was immobilized on plastic at 0.5 μg/ml in carbonate buffer (pH9.2).

[7] = molecular target: T1, recombinant hSIRPa (Sino Biologicals, …); test: SPR (Biacore); SIRPa-His immobilized on CM5 chip, antibody injected
Method: FIG. 2. Affinity analysis by Biacore of anti-SIRP antibodies on human SIRPa recombinant protein. SIRPa-His recombinant protein was immobilized onto a CM5 chip at 5 μg/ml (500 RU) and the indicated antibodies were added at different concentration.
Method: Recombinant hSIRPa (Sino Biologicals, Beijing, China; reference 11612-H08H) was immobilized into a CM5 sensor chip (GeHealthcare; France) at 5 μg/ml (500 RU) and antibodies were applied at different concentrations with a flow rate of 40 μl/min. Analysis was performed with a BIAcore 3000 (Biacore, GeHealthcare).

[8] = molecular target: T5, recombinant hSIRPb-His (Antibodies-online, reference ABIN3077231) (human, UniProt Q5TFQ8 30-371); test: BLI (Blitz); SIRPb-His on Ni-NTA biosensor, antibody at 20 ug/ml [B, table A]
T5 construct: also called SIRPb-His (Blitz); not shown: His tag
T5 sequence (Q5TFQ8 30-371): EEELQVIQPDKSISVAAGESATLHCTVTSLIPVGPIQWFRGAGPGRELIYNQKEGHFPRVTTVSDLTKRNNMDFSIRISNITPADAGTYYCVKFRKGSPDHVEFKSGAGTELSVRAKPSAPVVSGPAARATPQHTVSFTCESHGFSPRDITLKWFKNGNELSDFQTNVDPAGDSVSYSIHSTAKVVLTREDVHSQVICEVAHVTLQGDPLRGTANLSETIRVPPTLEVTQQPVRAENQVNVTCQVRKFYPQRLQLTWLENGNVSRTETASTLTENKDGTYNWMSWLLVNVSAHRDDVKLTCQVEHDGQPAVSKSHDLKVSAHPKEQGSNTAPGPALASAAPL
Method: as §3, with “7.” for “8.”, “SIRPb” for “SIRPg”, “SIRPb-His” for “SIRPg-His”, “20” for “10”, “analysis” for “analysis by ELISA assay”, “antibodies” for “antibodies on SIRPg”
as §4, with “hSIRPb-His (Antibodies-online; USA;” for “hSIRPg-His (Sino Biologicals, Beijing, China;”, “ABIN3077231)” for “11828-H08H)”

[9] = molecular target: T1, recombinant hSIRPa (Sino Biologicals, …); test: ELISA on immobilized hSIRPa-His, anti-human IgG detection, third experiment
Method: as §2

EC50 (read off the curve) [1]: ~8 ng/mL
binding result (CTLA4-Fc): binds
B1: modified anti-SIRPa HEFLB antibody with ECD of CD80 on the light chain (antibody, human IgG4 S228P, kappa)
heavy: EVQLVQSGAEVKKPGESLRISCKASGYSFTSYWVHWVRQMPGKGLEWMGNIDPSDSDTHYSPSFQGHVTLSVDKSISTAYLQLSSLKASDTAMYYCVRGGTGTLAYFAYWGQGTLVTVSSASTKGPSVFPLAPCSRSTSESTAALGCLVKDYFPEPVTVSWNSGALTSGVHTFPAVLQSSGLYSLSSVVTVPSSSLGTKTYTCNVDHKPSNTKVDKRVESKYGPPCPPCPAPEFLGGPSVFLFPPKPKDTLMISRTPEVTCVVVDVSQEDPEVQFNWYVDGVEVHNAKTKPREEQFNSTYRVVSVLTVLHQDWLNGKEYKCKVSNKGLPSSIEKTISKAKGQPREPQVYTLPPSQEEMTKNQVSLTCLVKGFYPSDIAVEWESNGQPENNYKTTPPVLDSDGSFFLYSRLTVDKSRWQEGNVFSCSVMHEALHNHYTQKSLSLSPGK
light: DVVMTQSPLSLPVTLGQPASISCRSSQSLVHSYGNTYLYWFQQRPGQSPRLLIYRVSNRFSGVPDRFSGSGSGTDFTLKISRVEAEDVGVYYCFQGTHVPYTFGGGTKVEIKRTVAAPSVFIFPPSDEQLKSGTASVVCLLNNFYPREAKVQWKVDNALQSGNSQESVTEQDSKDSTYSLSSTLTLSKADYEKHKVYACEVTHQGLSSPVTKSFNRGECGGGGSGGGGSGGGGSVIHVTKEVKEVATLSCGHNVSVEELAQTRIYWQKEKKMVLTMMSGDMNIWPEYKNRTIFDITNNLSIVILALRPSDEGTYECVVLKYEKDAFKREHLAEVTLSVKADFPTPSISDFEIPTSNIRRIICSTSGGFPEPHLSWLENGEELNAINTTVSQDPETELYAVSSKLDFNMTTNHSFMCLIKYGHLRVNQTFNWNTTKQEHFPDN
notes: as m32, ECD of CD80; also called VH+VLprot (CD80); HEF + LB-CD80

binding result (OX40Fc): binds
binding result [2]: binds
B2: modified anti-SIRPa HEFLB antibody with ECD of OX40L on the light chain (antibody, human IgG4 S228P, kappa)
heavy: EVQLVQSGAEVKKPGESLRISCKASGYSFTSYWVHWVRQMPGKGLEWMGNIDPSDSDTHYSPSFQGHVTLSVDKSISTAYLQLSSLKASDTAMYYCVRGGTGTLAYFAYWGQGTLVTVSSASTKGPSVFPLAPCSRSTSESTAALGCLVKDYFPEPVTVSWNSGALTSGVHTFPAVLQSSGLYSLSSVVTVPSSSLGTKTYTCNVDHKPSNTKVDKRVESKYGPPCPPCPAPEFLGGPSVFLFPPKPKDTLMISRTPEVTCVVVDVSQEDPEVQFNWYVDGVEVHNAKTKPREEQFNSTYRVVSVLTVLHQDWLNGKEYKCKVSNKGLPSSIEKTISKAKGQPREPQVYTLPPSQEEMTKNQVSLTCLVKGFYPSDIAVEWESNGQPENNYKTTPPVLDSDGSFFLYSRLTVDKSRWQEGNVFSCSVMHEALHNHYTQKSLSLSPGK
light: DVVMTQSPLSLPVTLGQPASISCRSSQSLVHSYGNTYLYWFQQRPGQSPRLLIYRVSNRFSGVPDRFSGSGSGTDFTLKISRVEAEDVGVYYCFQGTHVPYTFGGGTKVEIKRTVAAPSVFIFPPSDEQLKSGTASVVCLLNNFYPREAKVQWKVDNALQSGNSQESVTEQDSKDSTYSLSSTLTLSKADYEKHKVYACEVTHQGLSSPVTKSFNRGECGGGGSGGGGSGGGGSQVSHRYPRIQSIKVQFTEYKKEKGFILTSQKEDEIMKVQNNSVIINCDGFYLISLKGYFSQEVNISLHYQKDEEPLFQLKKVRSVNSLMVASLTYKDKVYLNVTTDNTSLDDFHVNGGELILIHQNPGEFCVL
notes: as m32, ECD of OX40L; also called VH+VLprot (OX40L); HEF + LB-OX40L

EC50 [3]: 4.61 ng/mL
Kd [4]: 47.6 nM
koff [4]: 0.0118 s⁻¹
kon [4]: 248000 M⁻¹ s⁻¹
EC50 [5]: 5.1 ng/mL
IC50 [6]: 146 ng/mL
Kd [7]: 0.217 nM
koff [7]: 0.000186 s⁻¹
kon [7]: 857000 M⁻¹ s⁻¹
Kd [8]: 25.8 nM
koff [8]: 0.00192 s⁻¹
kon [8]: 74500 M⁻¹ s⁻¹
B3: HFLA (antibody, human IgG4 S228P, kappa, V domains shown)
VH: EVQLVQSGAEVKKPGESLRISCKASGYSFTSYWVHWVRQMPGKGLEWMGNIDPSDSDTHYSPSFQGHVTLSVDKSISTAYLQLSSLKASDTAMYYCVRGGTGTMAYFAYWGQGTLVTVSS
VL: DVVMTQSPLSLPVTLGQPASISCRSSQSLVHSYGNTYLYWYQQRPGQSPRLLIYRVSNRFSGVPDRFSGSGSGTDFTLKISRVEAEDVGVYFCFQGTHVPYTFGGGTKVEIKR
notes: humanized 18D5 variant

EC50 [3]: 5.59 ng/mL
B4: HCLB (antibody, human IgG4 S228P, kappa, V domains shown)
VH: B3 VH with Y106W
VL: B3 VL with Y41F, F92Y
notes: humanized 18D5 variant; also called humanized 18D5 variant HCLB

EC50 [9]: 2.95 ng/mL
B5: HBLB (antibody, human IgG4 S228P, kappa, V domains shown)
VH: B3 VH with S61N, P62Q, S63K, Q65K, G66D, Y106W
VL: B3 VL with Y41F, F92Y
notes: humanized 18D5 variant; also called humanized 18D5 variant HBLB

EC50 [9]: 2.53 ng/mL
B6: HALB (antibody, human IgG4 S228P, kappa, V domains shown)
VH: B3 VH with S28T, M48I, S61N, P62Q, S63K, Q65K, G66D, Y106W
VL: B3 VL with Y41F, F92Y
notes: humanized 18D5 variant; also called humanized 18D5 variant HALB

Kd [4]: 46.1 nM
koff [4]: 0.00709 s⁻¹
kon [4]: 154000 M⁻¹ s⁻¹
EC50 [5]: 3.9 ng/mL
Kd [8]: 6.4 nM
koff [8]: 0.00085 s⁻¹
kon [8]: 133000 M⁻¹ s⁻¹
B7: HALA (antibody, human IgG4 S228P, kappa, V domains shown)
VH: B3 VH with S28T, M48I, S61N, P62Q, S63K, Q65K, G66D, Y106W
VL: B3 VL
notes: humanized 18D5 variant; also called humanized 18D5 variant HALA

Kd [4]: 52.4 nM
koff [4]: 0.0114 s⁻¹
kon [4]: 217000 M⁻¹ s⁻¹
EC50 [5]: 7.1 ng/mL
IC50 [6]: 191 ng/mL
Kd [7]: 0.264 nM
koff [7]: 0.000148 s⁻¹
kon [7]: 559000 M⁻¹ s⁻¹
Kd [8]: 12.4 nM
koff [8]: 0.00122 s⁻¹
kon [8]: 98300 M⁻¹ s⁻¹
B8: HEFLA (antibody, human IgG4 S228P, kappa, V domains shown)
VH: B3 VH with M104L
VL: B3 VL
notes: humanized 18D5 variant

EC50 [3]: 4.13 ng/mL
B9: HELB (antibody, human IgG4 S228P, kappa, V domains shown)
VH: B3 VH with M104L, Y106W
VL: B3 VL with Y41F, F92Y
notes: humanized 18D5 variant; also called humanized 18D5 variant HELB

EC50 [9]: 2.68 ng/mL
B10: HBLA (antibody, human IgG4 S228P, kappa, V domains shown)
VH: B3 VH with S61N, P62Q, S63K, Q65K, G66D, Y106W
VL: B3 VL
notes: humanized 18D5 variant; also called humanized 18D5 variant HBLA

EC50 (read off the curve) [1]: ~8 ng/mL
binding result (CTLA4-Fc): binds
B11: modified anti-SIRPa HEFLB antibody with ECD of CD80 on the heavy chain (antibody, human IgG4 S228P, kappa)
heavy: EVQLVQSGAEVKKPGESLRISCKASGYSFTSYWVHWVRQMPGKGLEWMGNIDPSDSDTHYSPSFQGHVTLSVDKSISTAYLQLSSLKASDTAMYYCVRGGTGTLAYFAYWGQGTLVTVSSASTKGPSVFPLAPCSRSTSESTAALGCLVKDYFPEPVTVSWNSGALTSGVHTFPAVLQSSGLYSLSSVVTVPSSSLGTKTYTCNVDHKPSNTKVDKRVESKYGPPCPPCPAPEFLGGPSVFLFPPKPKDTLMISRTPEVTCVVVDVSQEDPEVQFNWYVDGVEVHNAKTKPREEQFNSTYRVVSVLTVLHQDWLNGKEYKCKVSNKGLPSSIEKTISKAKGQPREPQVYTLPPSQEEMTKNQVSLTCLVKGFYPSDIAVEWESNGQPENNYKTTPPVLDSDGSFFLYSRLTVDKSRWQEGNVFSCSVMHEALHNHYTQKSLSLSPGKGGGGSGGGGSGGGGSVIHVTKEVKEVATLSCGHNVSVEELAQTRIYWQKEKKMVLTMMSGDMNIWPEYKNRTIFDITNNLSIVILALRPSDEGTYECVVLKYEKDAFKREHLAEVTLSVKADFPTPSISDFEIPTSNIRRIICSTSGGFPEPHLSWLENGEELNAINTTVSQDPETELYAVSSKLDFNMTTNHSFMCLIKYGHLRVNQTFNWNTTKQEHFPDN
light: DVVMTQSPLSLPVTLGQPASISCRSSQSLVHSYGNTYLYWFQQRPGQSPRLLIYRVSNRFSGVPDRFSGSGSGTDFTLKISRVEAEDVGVYYCFQGTHVPYTFGGGTKVEIKRTVAAPSVFIFPPSDEQLKSGTASVVCLLNNFYPREAKVQWKVDNALQSGNSQESVTEQDSKDSTYSLSSTLTLSKADYEKHKVYACEVTHQGLSSPVTKSFNRGEC
notes: as m25, ECD of CD80; also called VHprot+VL (CD80); VH-CD80

binding result (OX40Fc): binds
binding result [2]: binds
B12: modified anti-SIRPa HEFLB antibody with ECD of OX40L on the heavy chain (antibody, human IgG4 S228P, kappa)
heavy: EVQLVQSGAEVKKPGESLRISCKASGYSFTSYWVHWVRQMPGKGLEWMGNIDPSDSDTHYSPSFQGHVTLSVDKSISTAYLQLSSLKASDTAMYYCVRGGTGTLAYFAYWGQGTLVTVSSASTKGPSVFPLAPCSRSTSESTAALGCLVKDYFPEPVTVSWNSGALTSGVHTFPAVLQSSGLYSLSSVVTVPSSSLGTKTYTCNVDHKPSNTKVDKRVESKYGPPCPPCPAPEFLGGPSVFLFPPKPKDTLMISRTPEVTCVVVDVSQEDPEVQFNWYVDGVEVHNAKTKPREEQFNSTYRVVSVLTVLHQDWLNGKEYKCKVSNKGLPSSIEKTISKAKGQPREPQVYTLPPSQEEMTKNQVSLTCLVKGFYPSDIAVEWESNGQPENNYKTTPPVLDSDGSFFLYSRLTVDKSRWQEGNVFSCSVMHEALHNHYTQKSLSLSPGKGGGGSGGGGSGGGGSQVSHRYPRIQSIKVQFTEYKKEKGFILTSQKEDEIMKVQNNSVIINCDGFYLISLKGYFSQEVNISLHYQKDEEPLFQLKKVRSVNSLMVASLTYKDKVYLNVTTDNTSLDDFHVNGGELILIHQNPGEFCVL
light: B11 light
notes: as m25, ECD of OX40L; also called VHprot+VL (OX40L); HEF-OX40L + LB
